Results: the supplement of paper PMC10567573

B1: CRYL1 (parent)
chain: RNALENIRKEMKLLEQAGSLKGSL
B2: ZNF8 (parent)
chain: SLGRHKRTHTGEKPYTCSVCGKSF

Variants of: B1
Assay: protein stability index of a GFP-peptide fusion (GPS, HEK-293T) (PSI 1-6); higher = more stable
Details: c terminus: a fixed tail appended
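Also: lentivirally expressed fusions sorted by FACS into six bins by GFP to DsRed ratio, PSI derived from sequencing read proportions per bin multiplied by bin number.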

Protein stability index of substitutions, site by site:
L24: Y 3.08, F 3.13, K 4.12, E 4.08, W 3.16, S 3.95, D 3.99, M 3.3, N 3.81, V 3.66, P 3.77, C 4.05, I 3.2, T 3.47, A 4.11
G22: H 2.94, Q 3.36, R 3.4, V 2.15, S 3.14, I 1.4, F 2.65, Y 2.28, E 3.57, T 3.77, N 3.04, W 2, P 3.51, K 4.21, L 2.02, M 2.27
S23: Y 2.73, P 3.56, Q 3.32, L 1.87, T 2.8, D 3.48, R 3.07, N 3.22, H 3.12, W 1.95, C 3.08, V 2.2, G 3.4, A 2.9, K 3.39, F 2.64, E 3.84, M 2.27, I 2.45

Variants of: B2
Assay: as above
Details: c terminus: a fixed tail appended

Protein stability index: each site, then its substitutions
L2: F 2.61, V 2.8, C 4.3, K 3.66, H 4.09, N 3.82, T 3.12, R 2.04, Y 3.26, P 2.77, M 2.67, E 2.8, G 2.95, W 2.93, A 2.71, D 3.19, I 2.99, Q 2.25
K6: F 1.82, E 3.29, R 2.77, Y 3.23, H 1.97, V 2.35, C 3.29, D 4.27, A 2.68, P 2.18, L 2.04, M 2.38, T 2.97, G 2.33, S 2.61, Q 2.95, N 2.48, I 2.43, W 1.94
R7: A 2.42, G 4.28, L 2.66, H 3.65, D 3.02, I 3.39, E 4.08, C 4.55, K 3, F 2.83
H5: S 2.35, F 1.82, L 2.26, E 3.15, R 3.03, G 3.18, I 3.34, M 2.6, N 2.52, A 2.5, K 3.01, W 2.46, C 3.77, Q 2.84, Y 2.72, T 3.06, V 2.54, P 2.78, D 3.17
G3: M 2.66, T 3.28, D 3.32, P 3.02, H 4.17, S 1.93, I 3.15, L 1.21, K 4.65, E 3.41, C 3.68, N 2.21, W 1.98, Y 2.79, V 3.78, R 2.03, A 2.12
S1: Y 2.42, I 2.18, F 2.21, T 2.94, L 1.73, C 3.6, K 3.05, H 3.08, P 2.72, A 2.86, D 3.4, W 1.5, N 2.63, R 2.82, Q 3.71, M 2.46, E 3.94, V 2.58, G 2.8
R4: I 1.89, V 2.5, C 4.3, S 3.19, Q 2.2, H 2.85, W 2.13, P 2.34, E 4.09, T 3.61, G 3.44, D 3, N 3.1, F 2.57, M 2.5
